The results in this text go back to publication PMC3904923.

Assay [1] concerns the target Kv7.2 helix B (hB residues S450–S590) (human). Description: other fluorescence titration; competition: 12.5 nM D-CaM mixed with helix A (65.6 nM) or helix B (42.6 nM), isolated lobe added incrementally; with Ca2+; one site Hill fit, Kd derived assuming 1:1 binding.
Assay [2] shares this target. Description: other fluorescence titration; competition: 12.5 nM D-CaM mixed with helix A (46.4 nM) or helix B (20.1 nM), isolated lobe added incrementally; no Ca2+; one site Hill fit, Kd derived assuming 1:1 binding.
The target of assay [3] is dansylated calmodulin (rat) (UniProt P0DP30). Put plainly: other fluorescence titration; 12.5 nM D-CaM, ligand added incrementally, enhancement of dansyl emission; D-CaM binding buffer with 3.9 µM free Ca2+ (9.63 mM Ca2+, 2 mM Mg2+, 10 mM EGTA, pH 7.4); apparent affinity (EC50 of a Hill fit).
The target is the same in assay [4]. Description: other fluorescence titration; 12.5 nM D-CaM, ligand added incrementally, enhancement of dansyl emission; 25 mM Tris-HCl, 120 mM KCl, 5 mM NaCl, 2 mM MgCl2, 10 mM EGTA, pH 7.4; no free Ca2+; apparent affinity (EC50 of a Hill fit).

In assay [1], “CaM C-lobe (residues 79–148) (from UniProt P0DP23 80-149) (domain or fragment)” showed an IC50 of 244 nM and a Kd of 229 nM. In assay [2], this substance displayed an IC50 of 238 nM and a Kd of 231 nM.
The corresponding values for “CaM N-lobe (residues 1–78) (from UniProt P0DP23 2-79) (domain or fragment)” are 415 nM, 414 nM, 130 nM and 119 nM.
With “Kv7.2 CaM binding domain (residues 310–548), Q2AB WT (domain or fragment)”, the results for the EC50 in assay [3] and in assay [4] were 27.1 nM and 11 nM, respectively.
On to “Kv7.2 helix B (hB residues S450–S590) (domain or fragment)”, for which the EC50 was determined as 42.6 nM in assay [3] and 20.1 nM in assay [4].

Broadly, the IC50 is the midpoint of a concentration-inhibition curve. High values mean weaker potency in that assay, low ones greater potency in that assay. In general, Kd refers to the free concentration of one partner at which half of the binding sites on the other are occupied at equilibrium, for simple one-to-one binding. Usually EC50 stands for the concentration giving half of the maximal effect.
